Series [1] deals with His-tagged PirC (Sll0944, PII-interacting regulator of carbon metabolism) (Synechocystis sp. PCC 6803) (UniProt P77971). As to the kind of experiment: BLI; Octet K2; His-tagged PirC immobilised on a Ni2+-NTA sensor, strep-iPGAM variants as analytes in various concentrations. Background: BLI is a label-free optical method that tracks binding on a fibre tip over time.
Series [2] has as its target T1, iPGAM (Slr1945), strep-iPGAM, iPGAM-WT (Synechocystis sp. PCC 6803, UniProt P74507).
T1 construct: gene gpmI; N-terminal strep-tag; expressed in E. coli Lemo21(DE3), Strep-Tactin purified; calculated 60 kDa; monomer by mass photometry
In words: coupled enolase / pyruvate kinase / LDH assay, NADH decrease at […] nm. The series is classed as biochemical. Particulars: 50 µM MnCl2; without PirC.

The target in series [3] is T2, iPGAM (Slr1945), strep-iPGAM, iPGAM-WT (Synechocystis sp. PCC 6803, UniProt P74507, INS467TKKGI/DEL468-484, form not given).
T2 construct: gene gpmI; N-terminal strep-tag; expressed in E. coli Lemo21(DE3), Strep-Tactin purified; calculated 60 kDa; monomer by mass photometry
The description is as above. Type of series: biochemical. As to conditions: 50 µM MnCl2; without PirC.

In series [4] the target is strep-tagged iPGAM-Δloop (Synechocystis iPGAM with the loop replaced by TKKGI) (Synechocystis sp. PCC 6803) (UniProt P74507).
The target in series [5] is strep-tagged iPGAM (2,3-bisphosphoglycerate-independent phosphoglycerate mutase, Slr1945) of Synechocystis sp. PCC 6803, wild type (Synechocystis sp. PCC 6803) (UniProt P74507).
Series [6] deals with strep-tagged iPGAM-ΔCT (Synechocystis iPGAM with the C-terminal segment deleted) (Synechocystis sp. PCC 6803) (UniProt P74507).
The target of series [7] is strep-tagged iPGAM-ΔloopΔCT (Synechocystis iPGAM with the loop replaced by TKKGI and the C-terminal segment deleted) (Synechocystis sp. PCC 6803) (UniProt P74507).
The target of series [8] is strep-tagged PirC (Sll0944, PII-interacting regulator of carbon metabolism) (Synechocystis sp. PCC 6803) (UniProt P77971). In words: mass photometry; Refeyn OneMP; strep-iPGAM and strep-PirC alone (iPGAM 10 nM) and mixed at an iPGAM-PirC ratio of 1:3.
Series [9] deals with strep-tagged iPGAM (2,3-bisphosphoglycerate-independent phosphoglycerate mutase, Slr1945) of Synechocystis sp. PCC 6803, wild type (Synechocystis sp. PCC 6803) (UniProt P74507). Described as above.
Substrate in the series “purified protein”: O=C(O)[C@H](O)COP(=O)(O)O
In words: purified protein. The series is classed as biochemical, Synechocystis sp. PCC 6803. As to conditions: 50 µM MnCl2; without PirC.

Sequence of His-tagged PirC (Sll0944, PII-interacting regulator of carbon metabolism) (Synechocystis sp. PCC 6803) (P77971 whole entry): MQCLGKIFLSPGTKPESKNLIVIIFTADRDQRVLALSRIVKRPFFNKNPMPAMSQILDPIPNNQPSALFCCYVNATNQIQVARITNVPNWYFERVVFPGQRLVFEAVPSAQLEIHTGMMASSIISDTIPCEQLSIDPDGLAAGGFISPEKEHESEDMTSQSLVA

For orientation: Kd means the concentration at which binding is half-saturated. With “strep-tagged iPGAM-ΔCT (Synechocystis iPGAM with the C-terminal segment deleted) (from UniProt P74507 1-532) (enzyme)”, the Kd in [1] was 114 nM.
Usually Km stands for the concentration of substrate that gives half-maximal velocity. For the molecule `O=C(O)[C@H](O)COP(=O)(O)O` [3-PGA], the Km is 242 ± 19 µM in [2] and 547 ± 59 µM in [3].
In [1], “strep-tagged iPGAM-ΔloopΔCT (Synechocystis iPGAM with the loop replaced by TKKGI and the C-terminal segment deleted) (from UniProt P74507 1-532) (enzyme)” gave a dissociation constant Kd of 233 nM.
Still for that read-out and setting: next, “strep-tagged iPGAM-Δloop (Synechocystis iPGAM with the loop replaced by TKKGI) (from UniProt P74507 1-532) (enzyme)”: 203 nM.
Regarding “His-tagged PirC (Sll0944, PII-interacting regulator of carbon metabolism) (from UniProt P77971 1-164) (natural protein)”, the IC50 of PirC on iPGAM activity, coupled enzyme assay at 0.75 mM 3-PGA (50 to 1,600 nM PirC) in [4] amounted to 217 nM; in series [5], 120 nM; in series [6] it was 1070 nM; in [7], 164 nM.
The stoichiometry N is a count of units in the complex or per binding partner. Take “strep-tagged PirC (Sll0944, PII-interacting regulator of carbon metabolism) (from UniProt P77971 1-164) (natural protein)”: the stoichiometry N in series [8] came out at 6. Moreover, the stoichiometry N (PirC monomers per iPGAM) in [9] was determined as 3.

B1: strep-tagged iPGAM (2,3-bisphosphoglycerate-independent phosphoglycerate mutase, Slr1945) of Synechocystis sp. PCC 6803, wild type (enzyme)
chain: MAEAPIAPVVLVILDGWGYRPDTRANAIAQANTPIMDSLIAAYPNTLVNTSGKDVGLPKGQMGNSEVGHLNLGAGRVVPQELVRISDAIEDGTFFDNQALIEVCQRVRDRRGKLHLIGLCSDGGVHSHIDHLLGLIDLAKLQGISQLCIHAITDGRDTPTNEGAHFVQQIQAHLEKIGLGRIVSVSGRYYALDRDRRWDRVEKAYRVMTEDGVGDGRSAAQVIKDYYASDITDEFIPPTRIGAGAIASGDGVIFYNFRPDRARQLCYALVNPSFDGFPRERIQPLDFVTFTQYDPALPVVVAFEPQNLNNILGEIISRQGMKQFRTAETEKYPHVTYFFNGGLEQPFAGEDRELIQSPMVSTYDKAPQMSAKAVTDAVCRAMEKGIYSLVVVNYANPDMVGHTGKLKEAIQAIETVDLNLGRLLASAAKVGGTVLITADHGNAEYMSDESGNPWTAHTTNPVPFILVEGEGRKIPGHGGEVKLREGGKLADIAPTILDILQLPVPAEMTGKTLIDQPLVEIKANRTPVNLSR
For the molecule B1, in series [1], the Kd came to 378 nM.

B2: iPGAM (Slr1945), strep-iPGAM, iPGAM-WT (Synechocystis sp. PCC 6803 substr. Kazusa) (protein)
chain: B1 chain
notes: N-terminal strep-tag; expressed in E. coli Lemo21(DE3), Strep-Tactin purified; calculated 60 kDa; monomer by mass photometry
By Vmax is commonly meant the top rate of the reaction or transport when substrate is in excess. What is called kcat is the number of substrate molecules converted per active site and unit of time at saturation. Broadly, the kcat/Km is the turnover number divided by the Michaelis constant. As for B2, in “purified protein”, the Km worked out at 265 ± 13 µM, the Vmax was 18.6 µmol/min/mg, the kcat worked out at 18.6 ± 0.3 s⁻¹ and the kcat/Km was 70200 ± 3590 M⁻¹ s⁻¹.

B3: iPGAM (Slr1945), strep-iPGAM, iPGAM-WT (Synechocystis sp. PCC 6803 substr. Kazusa; DEL468-484/INS467TKKGI) (protein)
chain: MAEAPIAPVVLVILDGWGYRPDTRANAIAQANTPIMDSLIAAYPNTLVNTSGKDVGLPKGQMGNSEVGHLNLGAGRVVPQELVRISDAIEDGTFFDNQALIEVCQRVRDRRGKLHLIGLCSDGGVHSHIDHLLGLIDLAKLQGISQLCIHAITDGRDTPTNEGAHFVQQIQAHLEKIGLGRIVSVSGRYYALDRDRRWDRVEKAYRVMTEDGVGDGRSAAQVIKDYYASDITDEFIPPTRIGAGAIASGDGVIFYNFRPDRARQLCYALVNPSFDGFPRERIQPLDFVTFTQYDPALPVVVAFEPQNLNNILGEIISRQGMKQFRTAETEKYPHVTYFFNGGLEQPFAGEDRELIQSPMVSTYDKAPQMSAKAVTDAVCRAMEKGIYSLVVVNYANPDMVGHTGKLKEAIQAIETVDLNLGRLLASAAKVGGTVLITADHGNAEYMSDESGNPWTAHTTNPVPFILVTKKGIEGGKLADIAPTILDILQLPVPAEMTGKTLIDQPLVEIKANRTPVNLSR
notes: as for B2
On to B3, for which, in “purified protein”, the Km was determined as 1087 ± 141 µM, the maximum rate (Vmax) amounted to 6.86 µmol/min/mg, the kcat turned out to be 6.7 ± 0.4 s⁻¹ and the kcat/Km stood at 6190 ± 874 M⁻¹ s⁻¹.
